System: PPIs identified as affected by the SH3 domain deletions
Test: Liquid DHFR-PCA low-throughput validation of PPIs affected by SH3 deletion (Fig. S1D-E)
Format: cell-based, Saccharomyces cerevisiae
Conditions: bait ABP1; label = prey; liquid DHFR-PCA; prey _1 = lost, _2 = gained in screen
Procedure, shortened: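 Yeast diploids from DHFR-PCA mating grown 48 h in synthetic complete MSG medium pH 6.0 with NAT and HPH, normalized to 1 OD and diluted to 0.1 OD in liquid PCA selection medium. Growth followed by OD every 15 min for 72 h at 30 °C.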

Molecule	Ratio (Deletedscore / WTscore)
YNL287W_2 (protein, UniProt P32074 1-935, looked up) Coatomer subunit gamma: MSAHTYKKFENSTSGDLPDKMTIYQDCMNTFNESPVNSKRCRLLISRLLRLLAQGETFPQNEATALFFSISKLFQHQNDPLRQAVYLAIKELSGISEDVLMATSSIMKDVQNGSDLIKPDAIRSLTYVLDESTAFSAERLLKSAVVSRHPSISSAALCTSYHLLPISEVTIRRFTNETQEAVLDLKQFPNQHGNSEYYPNSTYISQYHALGLLYQLKKTDKMALLKLVRHFSENNSMKNQLAKVELVKIVNDLIYRDPQLFSQFRPLLSDWLSNKFESVQLETAKLITSFATRNSRLVAPELYAAAISALQSLLTVPRVSSRFAALRILNRISMVSPEKIVVCNPELESLINDSNRNISTYAITTLLKTGTSKNISSLISTITNFIHDVSDDFKIIIIDAVRTLSLNFPQEWKSILNFLIDVLKNSEGGFKFKNSIVEALIDIVSFVPQSKELALENLCDFIEDCEFNEILVRILHLLGKEGPSAPNPSLYVRHIYNRVVLENSIIRSAAVVALSKFALTKNDPTLYESIISLLKRIANDKDDEVRDRATIALEFIDSARNKDDVIAQNLIESKYFYDIPSLESKLSSYISSNTDSFATAFDVNQVRKFTEDEMKAINLKRKQEQIFNQKSETTLDTTPEAESVPEKRADANSFAGPNLDDHQEDLLATKYADELLSIEQIKPFGQLVNSSRAISLTEPEAEFVVRGVKHLFKDNVVLQFNITNTLTDIALDNVSVVCTPEISDEAELEELFTLQVDRLLPSEEAACYVAFKKLDEIVMEGFLNNLTFTTKEINPDTNEPFDGDEGFQDEYEIDSIFLNAGDYVKSSFTGNFSATFDELPCEEVAVFNIQEDLSIQEVVDKIILNSSCLPVESTQFAPSDSNSHTLKLFGKSALTGSKVALQIKMIKSSKGLALKVHGKGEDSLLCSDLVNGLMQ	1.101

Same assay, conditions: bait LSB3; label = prey; liquid DHFR-PCA; prey _1 = lost, _2 = gained in screen

Molecule	Ratio (Deletedscore / WTscore)
YLR436C_1 (protein, UniProt Q06673 1-1274, looked up) Protein ECM30: MGNTDSKSSSILLNHCIALVRPEDADASSPSRTSSPSPSLSVDADPLSLNLSIFKLDSGPDVEALFSDKPNVPLDTVFNDFYLDFISVDVQDFSINSSFKKILHIISSLNPPNFNNLIVFLSLYIILSANSLPASRTGLHSSRLINAIKTLSILIPIYFDRVKSSTQDHYDVFWATQHEIEGLPLQNIPLGERLLLAILKLAFQDNFTTAVTAHPSELWEIGILTNSNKYRSLLNMHHQWHLFANRLLLLRLLAALFSSDLYTSGGKQDINMFLVYWCTQMPKDKSIQFTSSLLNCTMRFILNNNKDFQSLKANFFSSDATASNWQTLYFQFVQSCLHVLNLSMSYKAQDNVITIFLTQLQREYDLKLILSSFIKIFKYPIDLAIEQESNIFNFTNNKHIDASRRRAVSTSSHDNSSSSHASLPSSSSAAYHTKPQTKPQLPEIHPLLIPMTILMTNLIDCNKCFQNYFADKFASRFIIFSIYYLKYYDYSSLSSSSSTTRSNSSTTSNGTSNDTSNERSIVELNENSVSQILLPLLNHLLLILTSKKLVLFKMLQTFNLNYYTNNLPNFYKLSNINGDINNLTFRDFTVIQLSNLILDNIKFNLQPNPIFYELIYNLLPINDEILTSSHKNDDSHDDLILLSAKKKSASPSAATSSHTSSSKLSYNAAMSLLYVLSKSSNKVYLTTYATPVFKTKDIPYMISPGFKMDLLALLLRSITIFFTLYFDDAENLLFAMVRHQSITHQINDSINSISKALDMNPNLNSHIMTLKQMGFNRKVQWKDFYQFEEITDLPQVNLYSSANQQHQNQQQGQNDNRGQNQNEDPGQENESPTPYLLFNPASLENETPGTVKHFSSTNHDKNYQVIAFIDFKSDSNLNLQHQLEYWPHRPQWPTPLTFTHKCKNPKYENFNEVWSGTVYLQILLRVIKQILSKVPEIPRIKSVQYFETLSKLSALRSDILTTIHPRLPLDVRRLTTFQPLSMHTNDKLLMWFHIATWANIFTQTSFKYEETFSHELRQFESLLDISIDECEGNTISKPTTDRLGYIRRSRGQSSVSLERTISAGSGVSTPTMALNRTKSNGSGNLMNYFFQNTAQNHFQHLRSSSSSSSITLEKTTSNSSSIRTRPNSHHVAPETNNNNSTNGNSNNSSNGGFSFFKWKWGGNNSNGGSDDTKASQRDPNVSTSIITDNLNSYMFEEEISPGVVNNIIENNIWVGTDIRLFKIANFRKESFSFLEMTSSFFKKFKFINSDNDNYNNNEFDDNTQLRYTSRGLYR	0.9725
YNL287W_2 (protein, UniProt P32074 1-935, looked up) Coatomer subunit gamma: MSAHTYKKFENSTSGDLPDKMTIYQDCMNTFNESPVNSKRCRLLISRLLRLLAQGETFPQNEATALFFSISKLFQHQNDPLRQAVYLAIKELSGISEDVLMATSSIMKDVQNGSDLIKPDAIRSLTYVLDESTAFSAERLLKSAVVSRHPSISSAALCTSYHLLPISEVTIRRFTNETQEAVLDLKQFPNQHGNSEYYPNSTYISQYHALGLLYQLKKTDKMALLKLVRHFSENNSMKNQLAKVELVKIVNDLIYRDPQLFSQFRPLLSDWLSNKFESVQLETAKLITSFATRNSRLVAPELYAAAISALQSLLTVPRVSSRFAALRILNRISMVSPEKIVVCNPELESLINDSNRNISTYAITTLLKTGTSKNISSLISTITNFIHDVSDDFKIIIIDAVRTLSLNFPQEWKSILNFLIDVLKNSEGGFKFKNSIVEALIDIVSFVPQSKELALENLCDFIEDCEFNEILVRILHLLGKEGPSAPNPSLYVRHIYNRVVLENSIIRSAAVVALSKFALTKNDPTLYESIISLLKRIANDKDDEVRDRATIALEFIDSARNKDDVIAQNLIESKYFYDIPSLESKLSSYISSNTDSFATAFDVNQVRKFTEDEMKAINLKRKQEQIFNQKSETTLDTTPEAESVPEKRADANSFAGPNLDDHQEDLLATKYADELLSIEQIKPFGQLVNSSRAISLTEPEAEFVVRGVKHLFKDNVVLQFNITNTLTDIALDNVSVVCTPEISDEAELEELFTLQVDRLLPSEEAACYVAFKKLDEIVMEGFLNNLTFTTKEINPDTNEPFDGDEGFQDEYEIDSIFLNAGDYVKSSFTGNFSATFDELPCEEVAVFNIQEDLSIQEVVDKIILNSSCLPVESTQFAPSDSNSHTLKLFGKSALTGSKVALQIKMIKSSKGLALKVHGKGEDSLLCSDLVNGLMQ	1.751
YNL106C_1 (protein, UniProt P50942 1-1183, looked up) Polyphosphatidylinositol …: MKILLSKQQTRKIAIVSETHGLVFRPINSKNSRRSTCAVELVPKAELNGNGFRRLSNHEIYGFIGLIEIEGLMFIATITGKSKVAQPIPNKTVNKIYAVDFFCLNNSKWDFMDIDSSGYPIVTNDGDFAISSPPSISTHSSRSSLRSSSSRSLNAQEQAPKHPCHELRKLLSNGSFYYSTDFDLTCTLQKRGFTEHSLSFDDFDREFMWNSFLMDEIITYRDRLDVTAKELLDQRGFLTTVIRGFAETIFSYINRLKVGLTIISRQSWKRAGTRFNARGIDDDGHVANFVETEMIMYSSQYCYAFTQIRGSLPIFWEQDTSLISPKIQITRSVEATQPTFDEHFIRLFKKYGPVHIINLLSTKSSEIQLSRRYKEQLKNSEKMKIGRDVFLTSFDFHRETSQDGFAAASRIIPKIRNTILDAGYFSYDVKEGRLISEQDGVFRTNCLDCLDRTNLIQQTISLAVFKLFLEDFRLVKPSSFIDDNEFVQKVNALWADNGDQISQIYTGTNALKSSYSRKGKMSFSGALSDATKSVSRMYINNFVDKGKQQNIDTLLGKLPHQQVVELYDPICEYVNERLLESEEKFTTHSNINLFVGTFNVNGNSRRADLSKWLFPIGDKFKPDVVVLGLQEVIELTAGSILNADYTKSSFWETMVTDCLNQYEEKYLLLRVEQMSSLLILFFARSDRAYNIKEVGGSTKKTGFGGITGNKGAVAIRFDYGATSFCFVNTHLSAGASNIDERRNDYNNIYRNITFPRSKTIPHHDSLFWLGDLNYRITLTNDEVRRELRAQKDGYIDRLLQYDQLTQEINEGVVFQGFKEPTLQFRPTYKYDYGTDNYDTSEKARTPSWTDRIIYKGENLHPLAYSDAPLKISDHKPVYAAYRANVKFVDEKEKLNLVEKLYAEYKNTHPEALTTGPDELSHARMEKQKESIPLDATVQSAGIKLIDLDDTSSCVSPLLSGPSPQPSVVGPGGLSNVSPDKSKLNVLPPPPPTSRHNKEPSSKLLSPTKEISIVSVSPRKGESNLPALERHSTPKPLPPVPALSLSKPVSLQKSSSELQHAKETIDNGKIVPRPCPPIRRKSSTAPDEISTSTKNSGVSTTEDPEPAKASTKPEKPPVVKKPHYLSVAANKLNTSQEHSIKVSPSNSKSEEELPCKKKSKPKVPAKNPELEKLSVHPLKPCDPN	0.7587
YMR192W_1 (protein, UniProt Q04322 1-720, looked up) Probable GTPase-activating …: MNSNEDIHEERIEVPRTPHQTQPEKDSDRIALRDEISVPEGDEKAYSDEKVEMATTNASSNFGSNESAKDGESIGAFSNPHEALMQSKLREESQSKTILPSDDLSQQLETEESKVEEALKRITSPPLPPRADCIEESASALKSSLPPVLAGNKNDQAPLDRPQLPPRQVVNAETLHLKAPHGNATPSKSPTSAVGNSSSSTPPTLPPRRIEDPLDLAAQKHFLASTFKRNMLFYKSEDNSIKCDLDKNILNLKEDSKKINNNEIPEEVSSFWLKVIGDYQNILINDIETLHFQLSRGIPAAYRLVVWQLVSYAKSKSFDPIYETYLTEMAPFDVQEFENQLKMMDEVPSEYVKRISNVLKAYLLFDPECEFSTDIAYIINMILDVCEEEANAFGLLVRLMKVYGLRLLFLPSASEIDILCYKFDRLVEEFYPEIHNHMVEKGVRSSMFLPGFFTTLFQKKLPTEIQPRIGDMVFLEGIDSIMRILATLLSNSRDHLLKMGFDDMLELLKSGLLDAYIKQNDGTRGDTLLSNECMDKLLQDSMMKVAITPKTMKKYSSEYEEIHRLDNEKEVQYKSITEKNLHLQKHVRKLENDYTSLNREHVTIANELVKNRLNIESVLNENNGYKLQILDLKKKLDSEKKKQVLGVYVPNDLKKDLEETMKKNTQVMDENLKLQDRISELERLIEEIKTANKNGTLFEYSNSKNNPLGAGWSGFKKVFK	0.5637
YLR166C_1 (protein, UniProt Q06245 1-871, looked up) Exocyst complex component …: MNSLYELDPKWKKLLKTDNFLGGLTVNEFVQELSKDHRNDVLIDANTKNLPTNEKDQDAIREAIWKQLDPKPYIRTFESTLKELKNLNEETLNKRQYFSEQVATQEVIHSENVIKLSKDLHTTLLTFDKLDDRLTNVTQVVSPLGDKLETAIKKKQNYIQSVELIRRYNDFYSMGKSDIVEQLRLSKNWKLNLKSVKLMKNLLILSSKLETSSIPKTINTKLVIEKYSEMMENELLENFNSAYRENNFTKLNEIAIILNNFNGGVNVIQSFINQHDYFIDTKQIDLENEFENVFIKNVKFKEQLIDFENHSVIIETSMQNLINDVETVIKNESKIVKRVFEEKATHVIQLFIQRVFAQKIEPRFEVLLRNSLSISNLAYVRILHGLFTLFGKFTKSLIDYFQLLEIDDSNQILSTTLEQCFADLFSHYLYDRSKYFGIEKRSLEAILVDMTSKFTVNYDKEINKRVLLDKYKEKLSTNVDAFMHSPRGNTHSRQDSTSRSKLSQFNSFLKTHLDKDHLSLNRTNTLSDSFNNSSSSTQYDVANNSSSLVNSSFTASDIDNSPNSPANYSLNDVDSMLKCVVESTARVMELIPNKAHLYILEILKIMFLGIVDSYMEIALEVAYWKICKVDINKTAGVVNLNFLKFISMSTEILDLLSISIKSIFLPLLNNSPEIKAQIIEMTNSQIQKMEILINIILQETITVISTKFSAILCKQKKKDFVPKSQELLDQDTLPAIEIVNILNLIFEQSSKFLKGKNLQTFLTLIGEELYGLLLSHYSHFQVNSIGGVVVTKDIIGYQTAIEDWGVASLIDKFATLRELANLFTVQPELLESLTKEGHLADIGRDIIQSYISNREDFNHDNFINSVKLNFR	0.4618

— paper PMC7954794, “Protein context shapes the specificity of SH3 domain-mediated interactions in vivo” (Nature Communications, 2021)
